Data from patent publication US20110118131A1 (published 2011).

Target: T1, IL-1beta (UniProt P01584 117-269)
T1 construct: also called IL-1β
Assay: Biacore

Row | fold difference in affinity vs parental [fold] | Binder
1 | 0.87 | XPA23 Fab, heavy chain Y107Q (Fab, V domains shown) VH: EVQLLESGGGLVQPGGSLRLSCAASGFTFSKYFMFWVRQAPGKGLEWVSVISPSGGMTRYADSVKGRFTISRDNSKNTLYLQMNSLRAEDTAVYYCARVGYGGNSDQWGQGTLVTVSS VL: DIQMTQSPSSVSASVGDRLTIICRASQDINRWLAWYQQTPGNAPKLLIHSATSLQSGVPSRFSGSGSGTDFTLTINSLQPEDFATYYCQQADSFPLTFGGGTKVEIK
2 | 0.89 | XPA23 Fab, heavy chain Y107W (Fab, V domains shown) VH: EVQLLESGGGLVQPGGSLRLSCAASGFTFSKYFMFWVRQAPGKGLEWVSVISPSGGMTRYADSVKGRFTISRDNSKNTLYLQMNSLRAEDTAVYYCARVGYGGNSDWWGQGTLVTVSS VL: DIQMTQSPSSVSASVGDRLTIICRASQDINRWLAWYQQTPGNAPKLLIHSATSLQSGVPSRFSGSGSGTDFTLTINSLQPEDFATYYCQQADSFPLTFGGGTKVEIK
3 | 0.89 | XPA23 Fab, heavy chain Y107S (Fab, V domains shown) VH: EVQLLESGGGLVQPGGSLRLSCAASGFTFSKYFMFWVRQAPGKGLEWVSVISPSGGMTRYADSVKGRFTISRDNSKNTLYLQMNSLRAEDTAVYYCARVGYGGNSDSWGQGTLVTVSS VL: DIQMTQSPSSVSASVGDRLTIICRASQDINRWLAWYQQTPGNAPKLLIHSATSLQSGVPSRFSGSGSGTDFTLTINSLQPEDFATYYCQQADSFPLTFGGGTKVEIK
4 | 0.85 | XPA23 Fab, heavy chain Y107R (Fab, V domains shown) VH: EVQLLESGGGLVQPGGSLRLSCAASGFTFSKYFMFWVRQAPGKGLEWVSVISPSGGMTRYADSVKGRFTISRDNSKNTLYLQMNSLRAEDTAVYYCARVGYGGNSDRWGQGTLVTVSS VL: DIQMTQSPSSVSASVGDRLTIICRASQDINRWLAWYQQTPGNAPKLLIHSATSLQSGVPSRFSGSGSGTDFTLTINSLQPEDFATYYCQQADSFPLTFGGGTKVEIK

Target: T2, IL-1β (UniProt P01584 117-269)
T2 construct: Antigen immobilised on the Biacore chip
Assay: Biacore, periplasmic extract

Row | fold difference in affinity vs original [fold] | binding result | Binder
5 | 0.13 | – | XPA23 light chain A51D (Fab, V domains shown) VH: EVQLLESGGGLVQPGGSLRLSCAASGFTFSKYFMFWVRQAPGKGLEWVSVISPSGGMTRYADSVKGRFTISRDNSKNTLYLQMNSLRAEDTAVYYCARVGYGGNSDYWGQGTLVTVSS VL: DIQMTQSPSSVSASVGDRLTIICRASQDINRWLAWYQQTPGNAPKLLIHSDTSLQSGVPSRFSGSGSGTDFTLTINSLQPEDFATYYCQQADSFPLTFGGGTKVEIK
6 | 3.84 | – | XPA23 light chain A51G (Fab, V domains shown) VH: EVQLLESGGGLVQPGGSLRLSCAASGFTFSKYFMFWVRQAPGKGLEWVSVISPSGGMTRYADSVKGRFTISRDNSKNTLYLQMNSLRAEDTAVYYCARVGYGGNSDYWGQGTLVTVSS VL: DIQMTQSPSSVSASVGDRLTIICRASQDINRWLAWYQQTPGNAPKLLIHSGTSLQSGVPSRFSGSGSGTDFTLTINSLQPEDFATYYCQQADSFPLTFGGGTKVEIK
7 | 0.29 | – | XPA23 light chain A51E (Fab, V domains shown) VH: EVQLLESGGGLVQPGGSLRLSCAASGFTFSKYFMFWVRQAPGKGLEWVSVISPSGGMTRYADSVKGRFTISRDNSKNTLYLQMNSLRAEDTAVYYCARVGYGGNSDYWGQGTLVTVSS VL: DIQMTQSPSSVSASVGDRLTIICRASQDINRWLAWYQQTPGNAPKLLIHSETSLQSGVPSRFSGSGSGTDFTLTINSLQPEDFATYYCQQADSFPLTFGGGTKVEIK
8 | 0.16 | – | XPA23 light chain A51L (Fab, V domains shown) VH: EVQLLESGGGLVQPGGSLRLSCAASGFTFSKYFMFWVRQAPGKGLEWVSVISPSGGMTRYADSVKGRFTISRDNSKNTLYLQMNSLRAEDTAVYYCARVGYGGNSDYWGQGTLVTVSS VL: DIQMTQSPSSVSASVGDRLTIICRASQDINRWLAWYQQTPGNAPKLLIHSLTSLQSGVPSRFSGSGSGTDFTLTINSLQPEDFATYYCQQADSFPLTFGGGTKVEIK
9 | – | no binding | XPA23 light chain A51F (Fab, V domains shown) VH: EVQLLESGGGLVQPGGSLRLSCAASGFTFSKYFMFWVRQAPGKGLEWVSVISPSGGMTRYADSVKGRFTISRDNSKNTLYLQMNSLRAEDTAVYYCARVGYGGNSDYWGQGTLVTVSS VL: DIQMTQSPSSVSASVGDRLTIICRASQDINRWLAWYQQTPGNAPKLLIHSFTSLQSGVPSRFSGSGSGTDFTLTINSLQPEDFATYYCQQADSFPLTFGGGTKVEIK
10 | – | no binding | XPA23 light chain A51I (Fab, V domains shown) VH: EVQLLESGGGLVQPGGSLRLSCAASGFTFSKYFMFWVRQAPGKGLEWVSVISPSGGMTRYADSVKGRFTISRDNSKNTLYLQMNSLRAEDTAVYYCARVGYGGNSDYWGQGTLVTVSS VL: DIQMTQSPSSVSASVGDRLTIICRASQDINRWLAWYQQTPGNAPKLLIHSITSLQSGVPSRFSGSGSGTDFTLTINSLQPEDFATYYCQQADSFPLTFGGGTKVEIK
11 | 0.61 | – | XPA23 light chain A51H (Fab, V domains shown) VH: EVQLLESGGGLVQPGGSLRLSCAASGFTFSKYFMFWVRQAPGKGLEWVSVISPSGGMTRYADSVKGRFTISRDNSKNTLYLQMNSLRAEDTAVYYCARVGYGGNSDYWGQGTLVTVSS VL: DIQMTQSPSSVSASVGDRLTIICRASQDINRWLAWYQQTPGNAPKLLIHSHTSLQSGVPSRFSGSGSGTDFTLTINSLQPEDFATYYCQQADSFPLTFGGGTKVEIK
12 | 0.13 | – | XPA23 light chain A51P (Fab, V domains shown) VH: EVQLLESGGGLVQPGGSLRLSCAASGFTFSKYFMFWVRQAPGKGLEWVSVISPSGGMTRYADSVKGRFTISRDNSKNTLYLQMNSLRAEDTAVYYCARVGYGGNSDYWGQGTLVTVSS VL: DIQMTQSPSSVSASVGDRLTIICRASQDINRWLAWYQQTPGNAPKLLIHSPTSLQSGVPSRFSGSGSGTDFTLTINSLQPEDFATYYCQQADSFPLTFGGGTKVEIK
13 | 0.24 | – | XPA23 light chain A51Q (Fab, V domains shown) VH: EVQLLESGGGLVQPGGSLRLSCAASGFTFSKYFMFWVRQAPGKGLEWVSVISPSGGMTRYADSVKGRFTISRDNSKNTLYLQMNSLRAEDTAVYYCARVGYGGNSDYWGQGTLVTVSS VL: DIQMTQSPSSVSASVGDRLTIICRASQDINRWLAWYQQTPGNAPKLLIHSQTSLQSGVPSRFSGSGSGTDFTLTINSLQPEDFATYYCQQADSFPLTFGGGTKVEIK
14 | 0.3 | – | XPA23 light chain A51N (Fab, V domains shown) VH: EVQLLESGGGLVQPGGSLRLSCAASGFTFSKYFMFWVRQAPGKGLEWVSVISPSGGMTRYADSVKGRFTISRDNSKNTLYLQMNSLRAEDTAVYYCARVGYGGNSDYWGQGTLVTVSS VL: DIQMTQSPSSVSASVGDRLTIICRASQDINRWLAWYQQTPGNAPKLLIHSNTSLQSGVPSRFSGSGSGTDFTLTINSLQPEDFATYYCQQADSFPLTFGGGTKVEIK
15 | 0.18 | – | XPA23 light chain A51R (Fab, V domains shown) VH: EVQLLESGGGLVQPGGSLRLSCAASGFTFSKYFMFWVRQAPGKGLEWVSVISPSGGMTRYADSVKGRFTISRDNSKNTLYLQMNSLRAEDTAVYYCARVGYGGNSDYWGQGTLVTVSS VL: DIQMTQSPSSVSASVGDRLTIICRASQDINRWLAWYQQTPGNAPKLLIHSRTSLQSGVPSRFSGSGSGTDFTLTINSLQPEDFATYYCQQADSFPLTFGGGTKVEIK
